# Laboratory results taken from patent US20260117202A1.
# Key:
# Assay in all cases: sandwich ELISA, AM14 coated, supernatant 1:10
# [1] = biological target: FHM-11 (RSV strain A2) (UniProt P03420)
# [2] = biological target: FHM-17 (RSV strain A2) (UniProt P03420)
# [3] = biological target: FHM-18 (RSV strain A2) (UniProt P03420)
# [4] = biological target: FHM-21 (RSV strain A2) (UniProt P03420)
# [5] = biological target: FHM-22 (RSV strain A2) (UniProt P03420)
# [6] = biological target: FHM-3 (RSV strain A2) (UniProt P03420)
# [7] = biological target: FHM-7 (RSV strain A2) (UniProt P03420)
# [8] = biological target: FHS-10 (RSV strain A2) (UniProt P03420)
# [9] = biological target: FHS-12 (RSV strain A2) (UniProt P03420)
# [10] = biological target: FHS-18 (RSV strain A2) (UniProt P03420)
# [11] = biological target: FHS-20 (RSV strain A2) (UniProt P03420)
# [12] = biological target: FHS-22 (RSV strain A2) (UniProt P03420)
# [13] = biological target: FHS-25 (RSV strain A2) (UniProt P03420)
# [14] = biological target: FHS-33 (RSV strain A2) (UniProt P03420)
# [15] = biological target: FHS-34 (RSV strain A2) (UniProt P03420)
# [16] = biological target: FHS-35 (RSV strain A2) (UniProt P03420)
# [17] = biological target: FHS-37 (RSV strain A2) (UniProt P03420)
# [18] = biological target: FHS-47 (RSV strain A2) (UniProt P03420)
# [19] = biological target: FHS-48 (RSV strain A2) (UniProt P03420)
# [20] = biological target: FHS-53 (RSV strain A2) (UniProt P03420)
# [21] = biological target: FHS-56 (RSV strain A2) (UniProt P03420)
# [22] = biological target: FHS-58 (RSV strain A2) (UniProt P03420)
# [23] = biological target: FHS-6 (RSV strain A2) (UniProt P03420)
# [24] = biological target: FHS-61 (RSV strain A2) (UniProt P03420)
# [25] = biological target: FHS-63 (RSV strain A2) (UniProt P03420)
# [26] = biological target: FHS-65 (RSV strain A2) (UniProt P03420)
# [27] = biological target: FHS-66 (RSV strain A2) (UniProt P03420)
# [28] = biological target: FHS-69 (RSV strain A2) (UniProt P03420)
# [29] = biological target: FHS-71 (RSV strain A2) (UniProt P03420)
# [30] = biological target: FHS-74 (RSV strain A2) (UniProt P03420)
# [31] = biological target: FHS-76 (RSV strain A2) (UniProt P03420)
# [32] = biological target: FHS-79 (RSV strain A2) (UniProt P03420)
# [33] = biological target: FHS-8 (RSV strain A2) (UniProt P03420)
# [34] = biological target: FHS-80 (RSV strain A2) (UniProt P03420)
# [35] = biological target: FHS-81 (RSV strain A2) (UniProt P03420)
# [36] = biological target: FHS-89 (RSV strain A2) (UniProt P03420)
# [37] = biological target: FHS-9 (RSV strain A2) (UniProt P03420)
# [38] = biological target: FHS-91 (RSV strain A2) (UniProt P03420)
# [39] = biological target: FHS-93 (RSV strain A2) (UniProt P03420)
# [40] = biological target: FHS-96 (RSV strain A2) (UniProt P03420)
# [41] = biological target: FHS-97 (RSV strain A2) (UniProt P03420)
substance,measurement,setting,value
AM14 monoclonal antibody,OD value,[1],0.006 OD
same,OD value,[2],0.006 OD
same,OD value,[3],1.8 OD
same,OD value,[4],0.007 OD
same,OD value,[5],1.98 OD
same,OD value,[6],0.07 OD
same,OD value,[7],0.007 OD
same,OD value,[8],0.069 OD
same,OD value,[9],1.24 OD
same,OD value,[10],0.009 OD
same,OD value,[11],0.009 OD
same,OD value,[12],0.01 OD
same,OD value,[13],0.007 OD
same,OD value,[14],0.005 OD
same,OD value,[15],0.007 OD
same,OD value,[16],0.007 OD
same,OD value,[17],0.007 OD
same,OD value,[18],1.32 OD
same,OD value,[19],2.42 OD
same,OD value,[20],0.008 OD
same,OD value,[21],0.009 OD
same,OD value,[22],0.011 OD
same,OD value,[23],2.65 OD
same,OD value,[24],0.008 OD
same,OD value,[25],0.006 OD
same,OD value,[26],1.73 OD
same,OD value,[27],1.75 OD
same,OD value,[28],1.88 OD
same,OD value,[29],0.012 OD
same,OD value,[30],0.023 OD
same,OD value,[31],0.821 OD
same,OD value,[32],0.008 OD
same,OD value,[33],0.013 OD
same,OD value,[34],0.005 OD
same,OD value,[35],0.008 OD
same,OD value,[36],0.006 OD
same,OD value,[37],0.009 OD
same,OD value,[38],0.008 OD
same,OD value,[39],0.009 OD
same,OD value,[40],0.011 OD
same,OD value,[41],0.006 OD
